Results: paper PMC3082930

How the values were obtained:
[1] = target: GFP-Kv2.1-K470Q (rat); experiment: TIRF single-particle photobleaching step counting
[2] = target: CFP-Kv2.1-K470Q (rat); experiment: FRET or BRET
[3] = target: Lys-Gln-Gln-Gln tetrameric Kv2.1 construct (rat); experiment: TIRF single-particle photobleaching step counting
[4] = target: Gln-Lys-Gln-Gln tetrameric Kv2.1 construct (rat); experiment: TIRF single-particle photobleaching step counting
[5] = target: Gln-Lys-Lys-Gln tetrameric Kv2.1 construct (rat); experiment: TIRF single-particle photobleaching step counting
[6] = target: CFP-Kv2.1 (rat) (UniProt P15387); experiment: FRET or BRET

With GFP-Kv2.1-K470Q (natural protein) the stoichiometry N [1] was 4.

YFP-Kv2.1-K470Q (natural protein) was tested, and the CFP donor photobleaching decay time constant (tau) [2] was 26.2 s.

In the case of “GFP-SUMO1_(101) (from UniProt P63165 1-101) (natural protein)”, the stoichiometry N [3] is reported as 1, the stoichiometry N [4] is reported as 1 and the stoichiometry N [5] is reported as 1.

In the case of “YFP-Ubc9 (from UniProt P63279 1-158) (enzyme)”, the CFP donor photobleaching decay time constant (tau) [6] is reported as 23.2 s.
